Data set [1] addresses T1, C-reactive protein (CRP) (Homo sapiens, UniProt P02741 P02741:19-224).
T1 sequence: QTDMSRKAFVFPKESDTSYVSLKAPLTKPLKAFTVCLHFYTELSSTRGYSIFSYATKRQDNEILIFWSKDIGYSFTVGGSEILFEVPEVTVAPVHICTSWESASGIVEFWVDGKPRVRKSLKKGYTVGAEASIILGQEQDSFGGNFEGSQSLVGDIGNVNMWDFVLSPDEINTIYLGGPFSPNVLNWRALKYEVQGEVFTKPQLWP
As to the kind of experiment: SPR; Biacore X, SA chip with biotinylated aptamer, 10 mM Tris, 50 mM NaCl, 2 mM CaCl2, 25 C, 1:1 Langmuir. The conditions noted are these: immobilised on Dynabeads M-450 Epoxy for SELEX, in solution for SPR; chain copies: 5 inferred (pentamer). The procedure: Then, 90 μL of the aptamer solution A being cooled to 4° C. is aliquoted, and the aptamer solution A is injected to pass the surface of the SA sensor chip, so that the aptamers A in the aptamer solution A is coated on the surface of the SA sensor chip. Later, 90 μL of the reverse primer solution is injected and passes through the surface of the SA sensor chip for blocking. Subsequently, 5×SSCT buffer is used to wash the surface of the SA sensor chip until the SPR response reaches a balance.
Five cycles as described in the following are then performed. Here, each cycle includes: (1) injecting 90 μL of the testing solution to pass through the surface of the SA sensor chip; (2) washing the surface of the SA sensor chip by using 90 μL of a washing buffer C (10 mM Tris buffer containing 50 mM NaCl and 2 mM CaCl₂); (3) recording the SPR response of the SA sensor chip for 5 min; and (4) injecting 90 μL of 100 mM NaOH to pass the surface of the SA sensor chip, so that the surface of the SA sensor chip is regenerated. The testing solutions used in the five cycles are washing buffers C respectively having a CRP concentration of 0.01, 0.05, 0.1, and 0.5 mg/L.
FIG. 4 is a SPR response measured under different CRP concentrations detected by the SA sensor chip coated with aptamers A along with time in the Biacore X system. […]
(In SPR one partner is held on a chip, and binding of the other changes the refractive index at the surface.)

Data set [2] addresses T1, C-reactive protein (CRP). As to the kind of experiment: competition; PCR product 3; CRP-coated tube, competition with free CRP, PCR readout, 25 C. The conditions noted are these: immobilised on Dynabeads M-450 Epoxy for SELEX, in solution for SPR; chain copies: 5 inferred (pentamer).

B1: aptamer A (ssDNA)
DNA: GGCAGGAAGACAAACACGATGGGGGGGTATGATTTGATGTGGTTGTTGCATGATCGTGGTCTGTGGTGCTGT
modifications: 5'-biotin (SPR and bead assay)
What is called Kd is the free concentration of one partner at which half of the binding sites on the other are occupied at equilibrium, for simple one-to-one binding. Higher therefore signals weaker binding. B1 registered a Kd with C-reactive protein (CRP) [1] of 3.51 nM.

B2: aptamer B (ssDNA)
DNA: GGCAGGAAGACAAACACACAAGCGGGTGGGTGTGTACTATTGCAGTATCTATTCTGTGGTCTGTGGTGCTGT
For the molecule B2, the binding result in the data set with C-reactive protein (CRP) [2] is given as “binds”.

Source of the values: patent US20110318846, “Aptamer and detection method for C-reactive protein” (National Cheng-Kung University, published 2011).
